Laboratory results taken from US12673985B2, “Method for the treatment or prophylaxis of cancer by targeting the extracellular portion of keratin 14 (KRT14) residing on cancer cells” (Hudson Institute of Medical Research, priority 2019, dated 2026).

B1: rK14: exogenously added, full-length recombinant KRT14 protein (protein)
chain: MTTCSRQFTSSSSMKGSCGIGGGIGGGSSRISSVLAGGSCRAPSTYGGGLSVSSSRFSSGGACGLGGGYGGGFSSSSSSFGSGFGGGYGGGLGAGLGGGFGGGFAGGDGLLVGSEKVTMQNLNDRLASYLDKVRALEEANADLEVKIRDWYQRQRPAEIKDYSPYFKTIEDLRNKILTATVDNANVLLQIDNARLAADDFRTKYETELNLRMSVEADINGLRRVLDELTLARADLEMQIESLKEELAYLKKNHEEEMNALRGQVGGDVNVEMDAAPGVDLSRILNEMRDQYEKMAEKNRKDAEEWFFTKTEELNREVATNSELVQSGKSEISELRRTMQNLEIELQSQLSMKASLENSLEETKGRYCMQLAQIQEMIGSVEEQLAQLRCEMEQQNQEYKILLDVKTRLEQEIATYRRLLEGEDAHLSSSQFSSGSQSSRDVTSSSRQIRTKVMDVHDGKVVSTHEQVLRTKN

Legend:
[1] = test system: OVCAR4 ovarian cancer cells; assay: Real time cell analysis (RTCA) of proliferation with cisplatin and mAb AN-17; format: cell-based, human
Method: Real time cell analysis (RTCA) was conducted as previously described (PMID: 31443478; Bilandzic et al., Cancers (Basel). 2019; 11(9), E1228) using an xCELLigence RTCA SP 96-well instrument (ACEA Biosciences). Cell lines were synchronized in G0 by overnight incubation in serum-free media and were seeded at 0.5×10^3 cells/0.15 ml/per well. […] Impedance readings were taken every 15 minutes for the experimental duration. mAb AN-17 comprises the heavy chain variable region of SEQ ID NO:3 and the light chain variable region of SEQ ID NO:5, encoded by the nucleic acid sequences of SEQ ID NOs:2 and 4, respectively (see also FIGS. 21 and 22A-22B).

ovarian cancer cells = assay: Real-time in vitro invasion assay (xCELLigence RTCA) with anti-KRT14 antibodies, rK14 and competing peptides; format: cell-based, human; conditions: for restoration of invasive capacity in competition with anti N-terminal KRT14 antibody: competition assay (FIG. 4B, 5B)
Method: xCELLigence Real Time Cell Analyses (RTCA). Real time cell analyses (RTCA) were conducted using an xCELLigence RTCA SP 96-well instrument (ACEA Biosciences). Cell lines were synchronized in Go phase by overnight incubation in serum-free media prior to commencement. For proliferation assays, cells were seeded at 0.5×10^3 cells/0.14 ml/per well (as outlined in the experimental text), and impedance readings taken every 5 minutes for 8 hours (in order to monitor cell adhesion), and subsequently every 15 minutes for 24 hours (to monitor cell proliferation). For invasion assays the upper chamber of a CIM-16 well plate was coated with Matrigel matrix (1:10 in SFM; BD Biosciences, San Jose, CA). Cells were seeded into the upper chamber (as above), with media+/−10% v/v FBS added to the lower chamber. All assays were performed in duplicate or triplicate, with at least three independent experiments.
Using flow cytometry and immunocytochemical staining of intact cells, it was observed that the N terminus of KRT14 is exposed at the cell surface (FIGS. 4A-4B). Consistent with other studies (Papafotiou et al. (2016) supra; Rock et al. (2009) supra), KRT14+ cells represented only a subset of tumor cell population (FIG. 4A). […] Thus, loss of invasive capacity was directly due to binding of the antibody of KRT14. Moreover, this effect is mediated by antibody binding to the N-terminus of KRT14; and the N-terminus was exposed on the external side of cells, accessible to antibody binding.
Antigenicity and hydrophobicity plots were used to examine the first 200 amino acids of KRT14 in silico (FIG. 5A). Five potentially antigenic regions were predicted, and six peptides encompassing to these regions were synthesized for use in further competition assays. Blockade of the N-terminal antibody by peptides #4 and #5 restored invasion (FIG. 5B) and migration (FIG. 5C) of ovarian cancer cells in vitro. […] Based on antibody and peptide competition assays, the surface-exposed region of the KRT14 protein was defined within the amino sequence NH2-[…] (SEQ ID NO:1). […]

| Molecule | cell viability and proliferation ([1]; cisplatin alone at 1.25 μg/ml) | cell viability and proliferation ([1]; cisplatin alone at 15 μg/ml or 20 μg/ml) | invasion by ovarian cancer cells in vitro (ovarian cancer cells; antibody or rK14 added exogenously (FIG. 4B)) | restoration of invasive capacity in competition with anti N-terminal KRT14 antibody (ovarian cancer cells) | restoration of invasive capacity in competition with anti N-terminal KRT14 antibody (ovarian cancer cells; listed as recombinant KRT14 protein) |
| --- | --- | --- | --- | --- | --- |
| N.N.[Cl][Pt][Cl] [cisplatin, reference compound] | sub-lethal and cells continued to proliferate | complete cell death | – | – | – |
| B1 | – | – | had no effect alone | successfully competed with a N-term antibody to restore invasive capacity | could compete for antibody binding, and resorted invasion in vitro |
